Results taken from article PMC5705219.

Target: PRDM9 chimera: human exons 1-9 joined to the final exon (ZF array, 18 zinc fingers) of the chimpanzee reference PRDM9 allele w11a, C-terminally tagged with HA or V5 (human | chimpanzee)
Assay: co-IP; direct competition: HEK293T transfected with three constructs, Human and Chimp prey with the same epitope tag and Human or Chimp bait with the complementary tag; IP against the bait tag, western against the prey tag; both directions of HA/V5 tagging

fold pull-down efficiency against Human PRDM9 prey on the same Chimp bait: > 2 fold
Substance: PRDM9 chimera: human exons 1-9 joined to the final exon (ZF array, 18 zinc fingers) of the chimpanzee reference PRDM9 allele w11a, C-terminally tagged with HA or V5
